Data taken from patent publication US20040265808A1, “Genes involved in osteogenesis, and methods of use” (priority 2001, published 2004).

B1: 48 (nucleic acid, listed as Mus musculus)
chain: AATCTAGAATGGCAGCTGCCTCTACTTCCAGCCCTGTAATTTCACAGCCCCAGTTCACAGCCATGAACGAACAACAGTGCTTCTACAATGAGTCTATCGCCTTCTTTTATAACCGGAGTGGGAAATATCTAGCCACAGAATGGAACACAGTGAGCAAGCTGGTGATGGGACTGGGCATCACTGTTTGCGTGTTCATCATGTTGGCCAATCTCCTGGTCATGGTGGCAATCTACGTCAACCGCCGCTTCCATTTCCCTATTTATTACTTGATGGCCAACCTGGCTGCTGCAGACTTCTTCGCTGGATTGGCCTACTTCTACCTGATGTTCAATACAGGACCTAATACCCGGAGACTGACTGTTAGCACGTGGCTCCTCCGGCAGGGCCTCATTGACACCAGCCTGACAGCTTCTGTGGCCAACCTGCTGGCTATTGCTATCGAGAGGCACATCACGGTTTTCCGCATGCAGCTCCATACACGAATGAGCAACCGGCGCGTGGTGGTGGTGATTGTAGTCATCTGGACTATGGCCATTGTGATGGGTGCTATACCCAGTGTGGGCTGGAACTGCATCTGTGATATCGATCACTGTTCCAACATGGCACCCCTCTACAGTGACTCCTACTTAGTCTTCTGGGCCATTTTCAACCTGGTGACCTTTGTGGTCATGGTGGTTCTCTACGCTCACATCTTTGGCTATGTTCGCCAGAGGACTATGAGGATGTCTCGGCATAGTTCTGGACCCAGGAGGAATCGGGACACCATGATGAGCCTTCTGAAGACTGTGGTCATTGTGCTTGGTGCCTTTATTGTCTGCTGGACTCCGGGATTGGTCTTGTTATTGCTGGATGTGTGCTGCCCGCAGTGCGATGTCCTGGCCTATGAGAAGTTCTTCCTCCTCCTGGCCGAGTTCAACTCTGCTATGAACCCCATCATCTACTCCTACCGCGACAAAGAGATGAGCGCCACCTTCAGGCAGATCCTGTGTTGCCAGCGCAACGAGAACCCTAATGGCCCCACGGAAGGCTCTGACCGCTCTGCCTCCTCCCTCAACCACACCATTCTGGCTGGAGTTCACAGCAACGACCACTCTGTGGTTACTAGTAA
B2: 65 (nucleic acid, listed as Mus musculus)
chain: AATCTAGAATGGAGGCCAGAGCTCAGAGTGGCAACGGGTCGCAGCCTTTGCTGCAGACAGCCCATGACAGTGGCAGGCAGCGCGGGGAGCCGGATCCAAGAGATGCCCTTACCCAGCAGGTACACGTCTTGTCTCTGGATCAGATCAGAGCCATCCGAAACACCAATGAGTACACAGAGGGCCCTACTGTGGTCCCAAGACCTGGGCTCAAGCCTGCTCCTCGCCCCTCCACTCAGCACAAACATGAAAGACTCCACGGTCTGCCGGAGCACCGCCAGCCTCCCAGGCTCCAGCCCTCGCAGGTCCATTCTTCACGGGCCCCTCTGTCCAGGTCCATCAGCACTGTCAGCTCAGGGTCTCGGAGCAGTACAAGGACAAGTACCAGCAGCAGCTCCTCGGAACAGAGACTGTTAGGACCGTCCTTCTCCCACGGGCCTGCTGCTGCTGATGGAATAATCCGAGTGCAGCCTAAATCGGAGCTCAAGCCAGGTGACGTTAAGCCACTGAGCAAGGATGATTTGGGTCTGCATGCCTACAGGTGTGAGGACTGCGGCAAGTGCAAGTGTAAGGAGTGCACCTACCCGAGGCCCCTGCCGTCGGACTGGATCTGTGACAAGCAGTGCCTCTGCTCAGCCCAGAACGTCATTGACTATGGGACTTGTGTGTGCTGTGTGAAAGGTCTCTTCTATCACTGCTCCAATGACGATGAGGACAATTGTGCTGACAACCCGTGCTCTTGCAGCCAGTCCCATTGTTGTACGCGATGGTCAGCGATGGGAGTCATGTCTCTCTTTTTGCCTTGTTTATGGTGTTACCTTCCAGCCAAGGGTTGCCTTAAATTGTGCCAGGGGTGTTATGACCGAGTGAACAGGCCGGGTTGTCGTTGTAAAAACTCAAATACAGTTTGCTGCAAAGTTCCCACTGTCCCCCCTAGGAACTTTGAAAAACCAACAACTAGTAAAAGGGCGAATTCCAGCAC

Test system: C3H10T1/2 cells
Experiment: Transient over-expression of candidate genes, cooperation with BMP2 by measurement of alkaline phosphatase
Type: cell-based, mouse
Parameters: key: +: positive or negative cooperation with BMP2; −: positive or negative cooperation with BMP2
Settings: for Validation in vitro (coop over BMP2) C3H10T1/2: alkaline phosphatase; for Validation in C2H10T1/2 (coop over BMP2): alkaline phosphatase at 48 hours
Method: Mouse cell lines representing different stages of osteoblastic differentiation, C2C12, C2H10T1/2, ST2 and MC3T3-E1, were grown in the presence of agents capable of the induction of osteoblastic differentiation in vitro such as BMP2 and Sonic Hedgehog or in the presence of TGF beta (negative control) or with serum alone. Primary cells derived from mouse calvaria were also cultured for 0, 2, 7 14 and 21 days and RNA prepared for each time point. For example, C3H10T ½ and C2C12 can be obtained from the ATCC (Manassas, Va., USA) under the collection numbers CCL-226 and CRL-1772, respectively.
The candidates genes are cloned in expression vectors and their ability to express a protein of the expected size verified by COS cells transient transfection. The genes are then transfected in C3H10T1/2 cells and/or C2C12 cells (transient over-expression) and positive or negative cooperation with BMP2 is evaluated by the measurement of alkaline phosphatase (enzymatic assay and TaqMan) at 48 hours. Controls of positive cooperation, recombinant Sonic Hedgehog, or negative cooperation, recombinant Noggin, are included in each test.

| Molecule | Validation in vitro (coop over BMP2) C3H10T1/2 | Validation in C2H10T1/2 (coop over BMP2) |
| --- | --- | --- |
| B1 | + | + coop over BMP2 |
| B2 | + | + coop over BMP2 |
